Series [1] deals with EGFP expression in HEK 293 cells. Nature of the series: Flow cytometry / imaging of EGFP with regulatory cassettes in HEK 293 cells. The series is classed as cell-based. The settings on record: stably transfected HEK 293, 500 μM guanine. Here is the method:
The intron-mtDHFR-aptamer-intron cassette was PCR amplified and cloned using Golden Gate cloning strategy (NEB) into pEGFP-C1 vector. To obtain a cell line stably expressing EGFP with riboswitch, HEK-293 cells were electroporated with 20 ng of plasmid DNA. Forty eight hours after electroporation, cell culture was selected with 800 μg/ml G418 for 2 weeks for cells that stably express the cassette. Cells were trypsinized and cell suspension was subjected to flow cytometric analysis of intensity of GFP fluorescence using a Guava EasyCyte 8HT machine. The resulting data was analyzed using GuavaSoft2.2.2.
Constructs were made using Golden Gate cloning strategy (NEB). […] Luciferase activity was assayed as described in Example 5.
A general note: A flow cytometer gives signals particle by particle.

The subject of series [2] is anti-KDR antibody production in HEK 293 cells. The series is classed as cell-based. To be noted: 500 μM guanine. Here is the method: Xpt-guanine aptamer with the following sequence: cactcatataat[…]cgact atgggtg (SEQ ID NO.: 10), was used to construct a riboswitch. Oligos containing the sequence of guanine aptamer and hairpin stem with 4 nucleotide 5′ overhang were synthesized (IDT), annealed and then ligated to BsaI-digested DHFR-acceptor vector. HEK 293 cells were transfected as described in Example 1. Four hours after transfection, the media was aspirated, and new media with or without 500 μM guanine was added. Luciferase expression was assayed 20 to 24 hrs after guanine treatment as described in Example 1 and Example 4. HepG2, AML12, RD and C2C12 (ATCC) were cultured using the protocol recommended by ATCC. The intron-exon-intron cassette containing the xpt-G17 riboswitch (SEQ ID NO.: 15) was inserted in the leader peptide sequences of the anti-KDR antibody gene and into the Stul site in mouse erythropoietin gene using Gibson cloning strategy (NEB). Constructs containing mouse erythropoietin (Epo) or anti-KDR antibody were transfected into HEK 293 cells. Four hour after transfection, the media was aspirated, and new media with or without 500 μM guanine was added. Supernatants were subjected to ELISA assay for the production of either anti-KDR antibody or the production of mouse Epo (R&D Systems).

B1: xpt-G17: intron-exon-intron cassette containing the xpt-G17 guanine riboswitch, SEQ ID NO: 15, inserted in various target genes (nucleic acid)
DNA: GTGAGTCTATGGGACCCTTGATGTTTTCTTTCCCCTTCTTTTCTATGGTTAAGTTCATGTCATAGGAAGGGGAGAAGTAACAGGGTACACATATTGACCAAATCAGGGTAATTTTGCATTTGTAATTTTAAAAAATGCTTTCTTCTTTTAATATACTTTTTTGTTTATCTTATTTCTAATACTTTCCCTAATCTCTTTCTTTCAGGGCAATAATGATACAATGTATCATGCCGAGTAACGCTGTTTCTCTAACTTGTAGGAATGAATTCAGATATTTCCAGAGAATGAAAAAAAAATCTTCAGTAGAAGGTAATGTATAATCGCGTGGATATGGCACGCAAGTTTCTACCGGGCACCGTAAATGTCCGACTACATTACGCACCATTCTAAAGAATAACAGTGATAATTTCTGGGTTAAGGCAATAGCAATATTTCTGCATATAAATATTTCTGCATATAAATTGTAACTGATGTAAGAGGTTTCATATTGCTAATAGCAGCTACAATCCAGCTACCATTCTGCTTTTATTTTATGGTTGGGATAAGGCTGGATTATTCTGAGTCCAAGCTAGGCCCTTTTGCTAATCATGTTCATACCTCTTATCTTCCTCCCACAG
modifications: xpt-G17 riboswitch
As for B1, the “time after guanine treatment at which fluorescence was detected” value in series [1] was determined as 6 h. In addition, the “induced antibody expression as percent of control construct containing the Con 1 intron sequences” value in series [2] is listed as “about 40%”.

The values are drawn from US12416018B2, “Regulation of gene expression by aptamer-mediated modulation of alternative splicing” (MEIRAGTX GENE REGULATION LIMITED, priority 2015, dated 2025).
